B1: NTCP wild type, NTCP-FLAG and NTCP-V5-His expressed in HEK293 cells [human] / NTCP wild type, NTCP-FLAG and NTCP-V5-His expressed in HEK293 cells [human] (parent)
chain 1: MEAHNASAPFNFTLPPNFGKRPTDLALSVILVFMLFFIMLSLGCTMEFSKIKAHLWKPKGLAIALVAQYGIMPLTAFVLGKVFRLKNIEALAILVCGCSPGGNLSNVFSLAMKGDMNLSIVMTTCSTFCALGMMPLLLYIYSRGIYDGDLKDKVPYKGIVISLVLVLIPCTIGIVLKSKRPQYMRYVIKGGMIIILLCSVAVTVLSAINVGKSIMFAMTPLLIATSSLMPFIGFLLGYVLSALFCLNGRCRRTVSMETGCQNVQLCSTILNVAFPPEVIGPLFFFPLLYMIFQLGEGLLLIAIFWCYEKFKTPKDKTKMIYTAATTEETIPGALGNGTYKGEDCSPCTA
chain 2: B1 chain 1

Variants of: B1
Experiment: co-IP (IP anti-FLAG agarose, western blot anti-V5, ImageJ band quantification)
Conditions: with NTCP wild type, HEK293 cells co-transfected with NTCP-FLAG and NTCP-V5-His, n = 3 independent experiments, parent: 100, read off a plot

In order of falling percent of parent:
1. chain 1 G60L A64L G233L G237L  160 % of control
2. chain 1 G233L G237L  130 % of control
3. chain 1 G60L A64L  110 % of control
